Measured values published in patent US20220064303A1 (GIGAGEN, published 2022).
One block for each binder: values may come before it.

Tests used:
[1] = molecular target: CTLA-4 on CTLA-4 effector cells (CTLA-4 Blockade Bioassay, Promega) (UniProt P16410 36-223, limits assumed); experiment: cell-based or functional assay
Cyno CTLA4 = molecular target: T1, Cyno CTLA4 (cyno, UniProt G7PL88 36-161); experiment: BLI (Octet Red96), mAb on AHC biosensor, antigen as analyte
T1 construct: Soluble antigen used as analyte in BLI
T1 sequence (G7PL88 entry or part of it): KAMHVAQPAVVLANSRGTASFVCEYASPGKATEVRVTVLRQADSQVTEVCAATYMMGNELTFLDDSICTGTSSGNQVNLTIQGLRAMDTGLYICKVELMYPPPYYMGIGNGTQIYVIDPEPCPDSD
Experimental: The binding specificity and affinity of each full-length antibody towards CTLA-4 were determined using biolayer interferometry (BLI) and/or surface plasmon resonance (SPR). Anti-cyno CTLA-4 and anti-mouse CTLA-4 affinities were tested using ForteBio (BLI). Anti-human CTLA-4 affinities were measured using Carterra (SPR).
For BLI, antibodies were loaded onto an Anti-Human IgG Fc (AHC) biosensor using the Octet Red96 system (ForteBio). Loaded biosensors were dipped into antigen dilutions beginning at 300 nM, with 6 serial dilutions at 1:3. Kinetic analysis was performed using a 1:1 binding model and global fitting.

Chain of CTLA-4 on CTLA-4 effector cells (CTLA-4 Blockade Bioassay, Promega) (P16410 36-223 limits assumed): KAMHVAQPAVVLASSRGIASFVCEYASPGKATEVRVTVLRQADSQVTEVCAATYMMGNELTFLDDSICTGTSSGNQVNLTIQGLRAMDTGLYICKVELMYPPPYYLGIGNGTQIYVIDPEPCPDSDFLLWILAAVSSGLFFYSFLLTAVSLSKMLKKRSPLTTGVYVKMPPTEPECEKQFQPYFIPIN

- Promega assay % inhibition [1]: 0%
B1: A28 (antibody, V domains shown)
VH: QVQLVESGGGVVQPGRSLGLSCAASGFTFSTYGMHWVRQAPGKGLEWVAVTLYDGSNKYYADSVKGRFTISRDNSKNTLYLQMNSLRAEDTAVYYCARASLTGSFDYWGQGTLVTVSS
VL: not shown

- Kd (Cyno CTLA4): 1.3 nM
B2: Ipilimumab (antibody, V domains shown)
VH: QVQLVESGGGVVQPGRSLRLSCAASGFTFSSYTMHWVRQAPGKGLEWVTFISYDGNNKYYADSVKGRFTISRDNSKNTLYLQMNSLRAEDTAIYYCARTGWLGPFDYWGQGTLVTVSS
VL: not shown

- Promega assay % inhibition [1]: 0%
B3: A23 (antibody, V domains shown)
VH: QVQLVQSGAEVKKPGASVKVSCKASGYTFTSYGISWVRQAPGQGLEWMGWISAYNGNTYYAQKFQGRVTMTTDTSTSTAYVELRSLRSDDTAVYYCARVTGRDAFDIWGQGTMVTVSS
VL: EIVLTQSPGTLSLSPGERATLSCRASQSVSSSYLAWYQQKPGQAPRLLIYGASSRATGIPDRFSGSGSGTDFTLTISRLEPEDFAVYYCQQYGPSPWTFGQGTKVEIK
